This passage reports stoichiometry N results from article PMC6340141.

This assay deals with T1, native KCC2 (neuron-specific K+-Cl- cotransporter) (mouse (endogenous in mouse brain)), Q91V14.
T1 chain: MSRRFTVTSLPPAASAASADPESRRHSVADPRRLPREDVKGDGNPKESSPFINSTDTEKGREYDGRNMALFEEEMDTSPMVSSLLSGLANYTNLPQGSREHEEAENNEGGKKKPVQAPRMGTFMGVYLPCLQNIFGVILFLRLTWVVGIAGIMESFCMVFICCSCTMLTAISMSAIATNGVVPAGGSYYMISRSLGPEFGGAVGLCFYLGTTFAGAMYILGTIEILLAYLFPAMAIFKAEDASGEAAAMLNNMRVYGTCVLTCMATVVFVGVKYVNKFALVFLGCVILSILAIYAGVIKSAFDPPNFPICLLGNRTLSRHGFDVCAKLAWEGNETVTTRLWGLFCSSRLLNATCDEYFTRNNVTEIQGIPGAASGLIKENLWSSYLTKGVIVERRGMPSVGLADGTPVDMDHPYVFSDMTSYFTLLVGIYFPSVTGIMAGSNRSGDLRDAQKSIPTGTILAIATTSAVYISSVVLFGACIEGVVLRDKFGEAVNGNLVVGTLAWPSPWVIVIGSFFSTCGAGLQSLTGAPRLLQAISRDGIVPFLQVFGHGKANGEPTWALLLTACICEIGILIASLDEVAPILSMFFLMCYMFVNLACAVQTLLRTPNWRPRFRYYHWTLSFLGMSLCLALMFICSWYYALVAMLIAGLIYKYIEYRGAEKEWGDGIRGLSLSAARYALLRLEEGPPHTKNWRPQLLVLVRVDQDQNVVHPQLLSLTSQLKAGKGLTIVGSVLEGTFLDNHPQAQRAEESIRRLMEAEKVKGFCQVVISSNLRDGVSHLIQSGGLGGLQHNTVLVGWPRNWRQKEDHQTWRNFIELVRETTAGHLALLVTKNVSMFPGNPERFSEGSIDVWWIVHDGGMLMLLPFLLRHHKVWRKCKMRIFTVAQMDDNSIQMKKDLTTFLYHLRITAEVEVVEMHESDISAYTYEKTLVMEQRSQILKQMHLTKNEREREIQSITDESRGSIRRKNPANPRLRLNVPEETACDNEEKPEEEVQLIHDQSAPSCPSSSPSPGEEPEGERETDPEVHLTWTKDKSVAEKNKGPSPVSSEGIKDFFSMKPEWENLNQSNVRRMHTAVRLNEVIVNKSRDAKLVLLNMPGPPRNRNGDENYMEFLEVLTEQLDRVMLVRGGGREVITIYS
The assay can be described thus: native gel or EMSA. Particulars: remark: other sources report otherwise. For orientation: A gel shift assay detects complexes by their altered migration in electrophoresis.

B1: native KCC2 (neuron-specific K+-Cl- cotransporter), Q91V14 1-1138 (natural protein)
chain: MSRRFTVTSLPPAASAASADPESRRHSVADPRRLPREDVKGDGNPKESSPFINSTDTEKGREYDGRNMALFEEEMDTSPMVSSLLSGLANYTNLPQGSREHEEAENNEGGKKKPVQAPRMGTFMGVYLPCLQNIFGVILFLRLTWVVGIAGIMESFCMVFICCSCTMLTAISMSAIATNGVVPAGGSYYMISRSLGPEFGGAVGLCFYLGTTFAGAMYILGTIEILLAYLFPAMAIFKAEDASGEAAAMLNNMRVYGTCVLTCMATVVFVGVKYVNKFALVFLGCVILSILAIYAGVIKSAFDPPNFPICLLGNRTLSRHGFDVCAKLAWEGNETVTTRLWGLFCSSRLLNATCDEYFTRNNVTEIQGIPGAASGLIKENLWSSYLTKGVIVERRGMPSVGLADGTPVDMDHPYVFSDMTSYFTLLVGIYFPSVTGIMAGSNRSGDLRDAQKSIPTGTILAIATTSAVYISSVVLFGACIEGVVLRDKFGEAVNGNLVVGTLAWPSPWVIVIGSFFSTCGAGLQSLTGAPRLLQAISRDGIVPFLQVFGHGKANGEPTWALLLTACICEIGILIASLDEVAPILSMFFLMCYMFVNLACAVQTLLRTPNWRPRFRYYHWTLSFLGMSLCLALMFICSWYYALVAMLIAGLIYKYIEYRGAEKEWGDGIRGLSLSAARYALLRLEEGPPHTKNWRPQLLVLVRVDQDQNVVHPQLLSLTSQLKAGKGLTIVGSVLEGTFLDNHPQAQRAEESIRRLMEAEKVKGFCQVVISSNLRDGVSHLIQSGGLGGLQHNTVLVGWPRNWRQKEDHQTWRNFIELVRETTAGHLALLVTKNVSMFPGNPERFSEGSIDVWWIVHDGGMLMLLPFLLRHHKVWRKCKMRIFTVAQMDDNSIQMKKDLTTFLYHLRITAEVEVVEMHESDISAYTYEKTLVMEQRSQILKQMHLTKNEREREIQSITDESRGSIRRKNPANPRLRLNVPEETACDNEEKPEEEVQLIHDQSAPSCPSSSPSPGEEPEGERETDPEVHLTWTKDKSVAEKNKGPSPVSSEGIKDFFSMKPEWENLNQSNVRRMHTAVRLNEVIVNKSRDAKLVLLNMPGPPRNRNGDENYMEFLEVLTEQLDRVMLVRGGGREVITIYS
B1 returned a stoichiometry N of 4.

One may read the stoichiometry N as the number of molecules, sites or subunits per partner or assembly.
